Publication PMC10786891, “Massively parallel profiling of RNA-targeting CRISPR-Cas13d”

Target: T1, EsCas13d, nuclease-dead (Eubacterium siraeum, UniProt B0MS50, R295A;H300A;R849A;H854A)
T1 sequence: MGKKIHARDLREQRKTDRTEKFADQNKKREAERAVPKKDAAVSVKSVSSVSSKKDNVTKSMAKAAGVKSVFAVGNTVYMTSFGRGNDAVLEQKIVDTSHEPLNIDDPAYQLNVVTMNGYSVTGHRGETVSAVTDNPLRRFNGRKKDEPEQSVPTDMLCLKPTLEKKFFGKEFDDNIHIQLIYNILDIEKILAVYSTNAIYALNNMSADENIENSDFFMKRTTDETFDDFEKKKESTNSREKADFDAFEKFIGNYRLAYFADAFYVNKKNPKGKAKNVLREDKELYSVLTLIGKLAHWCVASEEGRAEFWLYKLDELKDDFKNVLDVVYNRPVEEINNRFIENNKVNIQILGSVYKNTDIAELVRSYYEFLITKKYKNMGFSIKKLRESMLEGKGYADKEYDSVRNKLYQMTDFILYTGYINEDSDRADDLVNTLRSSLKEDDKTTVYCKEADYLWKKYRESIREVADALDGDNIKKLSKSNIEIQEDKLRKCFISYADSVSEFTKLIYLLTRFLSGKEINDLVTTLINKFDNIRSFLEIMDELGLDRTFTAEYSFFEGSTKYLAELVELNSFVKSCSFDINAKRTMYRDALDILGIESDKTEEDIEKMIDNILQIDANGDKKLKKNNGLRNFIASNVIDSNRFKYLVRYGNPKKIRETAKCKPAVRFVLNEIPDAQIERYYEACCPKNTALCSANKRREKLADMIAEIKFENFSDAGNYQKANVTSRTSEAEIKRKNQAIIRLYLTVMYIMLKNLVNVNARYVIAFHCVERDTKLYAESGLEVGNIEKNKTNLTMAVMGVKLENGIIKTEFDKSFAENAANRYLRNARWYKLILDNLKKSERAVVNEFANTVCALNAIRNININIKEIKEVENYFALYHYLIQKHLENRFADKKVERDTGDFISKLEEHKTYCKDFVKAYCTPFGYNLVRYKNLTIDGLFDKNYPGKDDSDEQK
Assay: crRNA (strand 1, pre-loaded); Mg2+; 40 mM Tris-HCl pH 7.5, 150 mM NaCl, 6 mM MgCl2, 1 mM DTT, 0.1% Tween-20, 0.2 mg/ml BSA; 25 C; 10 min per concentration, then washed
Conditions: tags: His6-TwinStrep-SUMO cleaved; N-terminal SNAP kept (SNAP-Surface 488); label: 3' end held by stalled T7 RNA polymerase

| Binder | Kd |
| --- | --- |
| target 1 insA 3' of 19,insG 3' of 10 (mixed) RNA 1: CACCCGUGCAAAAAUGCAGGGGUCUAAAACUGAGCGGAUAACCUCUCUAUGG RNA 2: GGGAAUGGAUCCACAUCUACGAAUUCGUACCAUAAGAGAGGUUGAUCCGCUCACCGAGAUCGGAAGAGCACACGU | 68 ± 28 nM |
| target 1 C7U,A16U (mixed) RNA 1: CACCCGUGCAAAAAUGCAGGGGUCUAAAACUGAGCGGAUAACCUCUCUAUGG RNA 2: GGGAAUGGAUCCACAUCUACGAAUUCGUACCAUAGUGAGGUUAUUCGCUCACCGAGAUCGGAAGAGCACACGU | 46 ± 7 nM |
| target 1 insA 3' of 21,insU 3' of 18 (mixed) RNA 1: CACCCGUGCAAAAAUGCAGGGGUCUAAAACUGAGCGGAUAACCUCUCUAUGG RNA 2: GGGAAUGGAUCCACAUCUACGAAUUCGUACCAAUAUGAGAGGUUAUCCGCUCACCGAGAUCGGAAGAGCACACGU | 46 ± 7 nM |
| target 1 del4,del9 (mixed) RNA 1: CACCCGUGCAAAAAUGCAGGGGUCUAAAACUGAGCGGAUAACCUCUCUAUGG RNA 2: GGGAAUGGAUCCACAUCUACGAAUUCGUACCAUAGAGAGGUUUCCGUCACCGAGAUCGGAAGAGCACACGU | 78 ± 15 nM |
| target 1 C7A,G12U (mixed) RNA 1: CACCCGUGCAAAAAUGCAGGGGUCUAAAACUGAGCGGAUAACCUCUCUAUGG RNA 2: GGGAAUGGAUCCACAUCUACGAAUUCGUACCAUAGAGAGUUUAUACGCUCACCGAGAUCGGAAGAGCACACGU | 15.3 ± 1.5 nM |
| target 1 C4G,U11C (mixed) RNA 1: CACCCGUGCAAAAAUGCAGGGGUCUAAAACUGAGCGGAUAACCUCUCUAUGG RNA 2: GGGAAUGGAUCCACAUCUACGAAUUCGUACCAUAGAGAGGCUAUCCGGUCACCGAGAUCGGAAGAGCACACGU | 9 ± 0.8 nM |
| target 1 U10G,A14G (mixed) RNA 1: CACCCGUGCAAAAAUGCAGGGGUCUAAAACUGAGCGGAUAACCUCUCUAUGG RNA 2: GGGAAUGGAUCCACAUCUACGAAUUCGUACCAUAGAGGGGUGAUCCGCUCACCGAGAUCGGAAGAGCACACGU | 23.3 ± 1.3 nM |
| target 1 U8G,C22G (mixed) RNA 1: CACCCGUGCAAAAAUGCAGGGGUCUAAAACUGAGCGGAUAACCUCUCUAUGG RNA 2: GGGAAUGGAUCCACAUCUACGAAUUCGUAGCAUAGAGAGGUUAGCCGCUCACCGAGAUCGGAAGAGCACACGU | 43 ± 11 nM |
| target 1 insU 3' of 17,insA 3' of 2 (mixed) RNA 1: CACCCGUGCAAAAAUGCAGGGGUCUAAAACUGAGCGGAUAACCUCUCUAUGG RNA 2: GGGAAUGGAUCCACAUCUACGAAUUCGUACCAUAGUAGAGGUUAUCCGCUCAACCGAGAUCGGAAGAGCACACGU | 17.6 ± 1.8 nM |
| target 1 A18U,A20G (mixed) RNA 1: CACCCGUGCAAAAAUGCAGGGGUCUAAAACUGAGCGGAUAACCUCUCUAUGG RNA 2: GGGAAUGGAUCCACAUCUACGAAUUCGUACCGUUGAGAGGUUAUCCGCUCACCGAGAUCGGAAGAGCACACGU | 93 ± 30 nM |
| target 1 U3A,U19C (mixed) RNA 1: CACCCGUGCAAAAAUGCAGGGGUCUAAAACUGAGCGGAUAACCUCUCUAUGG RNA 2: GGGAAUGGAUCCACAUCUACGAAUUCGUACCACAGAGAGGUUAUCCGCACACCGAGAUCGGAAGAGCACACGU | 24.2 ± 2.6 nM |
| target 1 insG 3' of 9,insA 3' of 7 (mixed) RNA 1: CACCCGUGCAAAAAUGCAGGGGUCUAAAACUGAGCGGAUAACCUCUCUAUGG RNA 2: GGGAAUGGAUCCACAUCUACGAAUUCGUACCAUAGAGAGGUUAGUCACGCUCACCGAGAUCGGAAGAGCACACGU | 12.2 ± 0.6 nM |
| target 1 insG 3' of 7,insA 3' of 2 (mixed) RNA 1: CACCCGUGCAAAAAUGCAGGGGUCUAAAACUGAGCGGAUAACCUCUCUAUGG RNA 2: GGGAAUGGAUCCACAUCUACGAAUUCGUACCAUAGAGAGGUUAUCGCGCUCAACCGAGAUCGGAAGAGCACACGU | 6.36 ± 0.31 nM |
| target 1 del3,del7 (mixed) RNA 1: CACCCGUGCAAAAAUGCAGGGGUCUAAAACUGAGCGGAUAACCUCUCUAUGG RNA 2: GGGAAUGGAUCCACAUCUACGAAUUCGUACCAUAGAGAGGUUAUCGCCACCGAGAUCGGAAGAGCACACGU | 4.94 ± 0.21 nM |
| target 1 insC 3' of 12 (mixed) RNA 1: CACCCGUGCAAAAAUGCAGGGGUCUAAAACUGAGCGGAUAACCUCUCUAUGG RNA 2: GGGAAUGGAUCCACAUCUACGAAUUCGUACCAUAGAGAGGCUUAUCCGCUCACCGAGAUCGGAAGAGCACACGU | 8.3 ± 0.5 nM |
| target 1 insU 3' of 21,insG 3' of 9 (mixed) RNA 1: CACCCGUGCAAAAAUGCAGGGGUCUAAAACUGAGCGGAUAACCUCUCUAUGG RNA 2: GGGAAUGGAUCCACAUCUACGAAUUCGUACCUAUAGAGAGGUUAGUCCGCUCACCGAGAUCGGAAGAGCACACGU | 77 ± 19 nM |
| target 1 insA 3' of 21,insU 3' of 5 (mixed) RNA 1: CACCCGUGCAAAAAUGCAGGGGUCUAAAACUGAGCGGAUAACCUCUCUAUGG RNA 2: GGGAAUGGAUCCACAUCUACGAAUUCGUACCAAUAGAGAGGUUAUCCGUCUCACCGAGAUCGGAAGAGCACACGU | 30 ± 5 nM |
| target 1 insG 3' of 7,insC 3' of 1 (mixed) RNA 1: CACCCGUGCAAAAAUGCAGGGGUCUAAAACUGAGCGGAUAACCUCUCUAUGG RNA 2: GGGAAUGGAUCCACAUCUACGAAUUCGUACCAUAGAGAGGUUAUCGCGCUCACCCGAGAUCGGAAGAGCACACGU | 7.6 ± 0.5 nM |
| target 1 G13U,A16G (mixed) RNA 1: CACCCGUGCAAAAAUGCAGGGGUCUAAAACUGAGCGGAUAACCUCUCUAUGG RNA 2: GGGAAUGGAUCCACAUCUACGAAUUCGUACCAUAGGGAUGUUAUCCGCUCACCGAGAUCGGAAGAGCACACGU | 100 ± 50 nM |
| target 1 insA 3' of 15,insC 3' of 13 (mixed) RNA 1: CACCCGUGCAAAAAUGCAGGGGUCUAAAACUGAGCGGAUAACCUCUCUAUGG RNA 2: GGGAAUGGAUCCACAUCUACGAAUUCGUACCAUAGAGAAGCGUUAUCCGCUCACCGAGAUCGGAAGAGCACACGU | 16.4 ± 2.3 nM |
| target 1 insG 3' of 7,insG 3' of 1 (mixed) RNA 1: CACCCGUGCAAAAAUGCAGGGGUCUAAAACUGAGCGGAUAACCUCUCUAUGG RNA 2: GGGAAUGGAUCCACAUCUACGAAUUCGUACCAUAGAGAGGUUAUCGCGCUCAGCCGAGAUCGGAAGAGCACACGU | 6.65 ± 0.35 nM |
| target 1 insU 3' of 20,insG 3' of 11 (mixed) RNA 1: CACCCGUGCAAAAAUGCAGGGGUCUAAAACUGAGCGGAUAACCUCUCUAUGG RNA 2: GGGAAUGGAUCCACAUCUACGAAUUCGUACCAUUAGAGAGGUGUAUCCGCUCACCGAGAUCGGAAGAGCACACGU | 51 ± 12 nM |
| target 1 insA 3' of 19,insU 3' of 15 (mixed) RNA 1: CACCCGUGCAAAAAUGCAGGGGUCUAAAACUGAGCGGAUAACCUCUCUAUGG RNA 2: GGGAAUGGAUCCACAUCUACGAAUUCGUACCAUAAGAGUAGGUUAUCCGCUCACCGAGAUCGGAAGAGCACACGU | 23.2 ± 2.6 nM |
| target 1 insU 3' of 17,insC 3' of 1 (mixed) RNA 1: CACCCGUGCAAAAAUGCAGGGGUCUAAAACUGAGCGGAUAACCUCUCUAUGG RNA 2: GGGAAUGGAUCCACAUCUACGAAUUCGUACCAUAGUAGAGGUUAUCCGCUCACCCGAGAUCGGAAGAGCACACGU | 18 ± 2.4 nM |
| target 1 insA 3' of 21,insC 3' of 12 (mixed) RNA 1: CACCCGUGCAAAAAUGCAGGGGUCUAAAACUGAGCGGAUAACCUCUCUAUGG RNA 2: GGGAAUGGAUCCACAUCUACGAAUUCGUACCAAUAGAGAGGCUUAUCCGCUCACCGAGAUCGGAAGAGCACACGU | ~44 nM |
| target 1 del11 (mixed) RNA 1: CACCCGUGCAAAAAUGCAGGGGUCUAAAACUGAGCGGAUAACCUCUCUAUGG RNA 2: GGGAAUGGAUCCACAUCUACGAAUUCGUACCAUAGAGAGGUAUCCGCUCACCGAGAUCGGAAGAGCACACGU | 15.9 ± 0.9 nM |
| target 1 U10A,A16C (mixed) RNA 1: CACCCGUGCAAAAAUGCAGGGGUCUAAAACUGAGCGGAUAACCUCUCUAUGG RNA 2: GGGAAUGGAUCCACAUCUACGAAUUCGUACCAUAGCGAGGUAAUCCGCUCACCGAGAUCGGAAGAGCACACGU | 68 ± 10 nM |
| target 1 insC 3' of 11,insU 3' of 6 (mixed) RNA 1: CACCCGUGCAAAAAUGCAGGGGUCUAAAACUGAGCGGAUAACCUCUCUAUGG RNA 2: GGGAAUGGAUCCACAUCUACGAAUUCGUACCAUAGAGAGGUCUAUCCUGCUCACCGAGAUCGGAAGAGCACACGU | 69 ± 8 nM |
